Patent publication US20230090114A1, “METHODS FOR PROMOTING WEIGHT LOSS” (89BIO LTD., priority 2020, published 2023)

What was measured:
[1] = Body weight of CD-1 mice, 4-week SC treatment; type: in vivo
Description: Detailed Methods: Adult male CD-1 mice at 6 weeks of age at receipt (with an expected weight of 35-39 g) were purchased from Charles River (St Germain sur l'Arbresle, France). From receipt, mice were singly housed and allowed ad libitum access to water and to a control diet (pellet A04; SAFE, Villemoisson-sur-Orge, France), unless otherwise noted (see Section D.). Throughout the study, animals were maintained in an ambient temperature (22.0±1.0° C.) and humidity (40-50%) controlled room on a 12-h light/12-h dark cycle (9:00 PM: Light ON/9:00 AM Light OFF).
At receipt and until the end of the experiment, all animals fed the control diet (A04 pellet). Following the acclimation and habituation periods, forty-eight (48) mice were subcutaneously treated either with vehicle, liraglutide (as the benchmark) or 89BIO-100 (3 different doses tested).
From T1 to T28, vehicle and 89BIO100 (at the 3 different doses) were administrated by subcutaneous (SC) injection three times a week, while the treatment with liraglutide was administrated by subcutaneous route, twice a day, every day. It was important to notice that the first dosing was done just before the […] (at 9:00 AM) and the second dosing was done 8 hours after the first one (at 5:00 PM). Throughout the treatment period, FI and BW were daily measured.
General Methods: Naive CD-1 mice were treated subcutaneously (SC) for 4 weeks at ambient temperature with BIO89-100 at doses of 0, 0.3, 1.0 and 3.0 mg/kg (3qW×4 weeks) or with liraglutide at 0.2 mg/kg (BID×4 W; SC). BW and FC were measured daily throughout the treatment period. To investigate the impact of BIO89-100 on energy expenditure, the respiratory exchanges (VO2 and VCO2) were recorded during 3 distinct sessions of METABOpack™, a multiparametric approach allowing an automated and simultaneous recording of FC, water intake, respiratory exchanges and spontaneous activity. Meal pattern analysis was conducted on the high-resolution recordings of FC. The body composition (fat, lean and fluid masses) was analyzed 3 times during the study by the mean of Time-Domain Nuclear Magnetic Resonance (TD-NMR).

[2] = Organ/tissue weights on T28; type: in vivo, CD-1 mice; conditions: for eWAT weight: T28
Description: On T28, after 4 hours of fasting, a terminal sampling of blood and organs/tissues was performed on anaesthetized mice (by a mixture of Ketamine/Xylazine, 80/10 mg/kg). A large blood sample was collected by cardiac puncture, and the following organ/tissues were collected, weighed, snap-frozen in liquid nitrogen and stored at −80° C. for further analyses: […]

[3] = Semi-fasted blood glucose (4 hours of fasting); type: in vivo, CD-1 mice

B1: Mutant FGF21-GalNAc-SA-PEG-20 kDa (conjugate)
chain: MHPIPDSSPLLQFGGQVRQRYLYTDDAQQTEAHLEIREDGTVGGAADQSPESLLQLKALKPGVIQILGVKTSRFLCQRPDGALYGSLHFDPEACSFRELLLEDGYNVYQSEAHGLPLHLPGNKSPHRDPAPRGPARFLPLPGLPPALPEPPGILAPQPPDVGSSDPLSMVGPTQGASPSYAS
delta body weight ([1]; 0.3 mg/kg, vs Liraglutide, T2-T11, T13-T16): increase in delta body weight | body weight ([1]; 0.3 mg/kg, vs Liraglutide, T2-T24 and T26): greater body weight | delta body weight ([1]; 0.3 mg/kg, vs vehicle, T3-T6): increase in delta body weight | delta body weight ([1]; 1 mg/kg, vs 0.3 mg/kg, T6-T21): significant decrease in delta body weight | body weight ([1]; 1 mg/kg, vs Liraglutide, T2-T5): greater body weight | delta body weight ([1]; 1 mg/kg, vs vehicle, T8-T21, T23, T24): marked decrease in delta body weight | delta body weight ([1]; 3 mg/kg, vs 0.3 mg/kg, T5-T28): marked decrease in delta body weight | delta body weight ([1]; 3 mg/kg, vs 1 mg/kg, T11, T12, T13, T15): significant decrease in delta body weight | body weight ([1]; 3 mg/kg, vs 0.3 and 1 mg/kg, over treatment period): reduced the body weight | delta body weight ([1]; 3 mg/kg, vs Liraglutide, T8-T13 and T25): significant decrease in delta body weight | body weight ([1]; 3 mg/kg, vs Liraglutide, T11-T13): lower body weight | delta body weight ([1]; 3 mg/kg, vs vehicle, T3 and T6-T28): marked decrease in delta body weight | body weight ([1]; 3 mg/kg, vs vehicle, except T2, T3, T4): lower body weight | body weight ([1]; 0.3 and 1 mg/kg, vs vehicle): did not show any difference in body weight | body weight ([1]; 1 and 3 mg/kg, throughout treatment period (summary)): lower body weight in dose-dependent manner | delta body weight ([1]; 1 and 3 mg/kg, vs Liraglutide, T2-T4): increase in delta body weight | decrease in BW ([1]; naive CD-1 mice, 0.3-3.0 mg/kg SC 3qW x 4 weeks, dose-dependent, up to): up to −13.8% | epididymal white adipose tissue (eWAT) weight ([2]; 89BIO-100 treated mice (summary)): strongly reduced | eWAT weight ([2]; 1 and 3 mg/kg, vs vehicle): significant decrease in eWAT weight | eWAT weight ([2]; among the three 89BIO-100 groups): no significant difference | blood glucose levels ([3]; T3 and T16, between 89BIO-treated groups): no significant difference | blood glucose levels ([3]; T3 and T16, whatever the dose, vs Liraglutide): higher blood glucose levels | blood glucose levels ([3]; T3 and T16, whatever the dose, vs vehicle): did not alter | blood glucose levels ([3]; T28, 3 mg/kg, vs 0.3 and 1 mg/kg): higher blood glucose levels | blood glucose levels ([3]; T28, 3 mg/kg, vs vehicle): significant increase in blood glucose levels | blood glucose levels ([3]; T29 (so in the source), 0.3 and 3 mg/kg, vs Liraglutide): increased | hypoglycemic action ([3]; wild-type CD-1 mice, in contrast to Liraglutide (summary)): did not have a hypoglycemic action
